Publication doi:10.1101/2025.11.26.690709, “Domain-specific decoupling of co-chaperone and ligase functions in STUB1 underlies biochemical and clinical heterogeneity in SCA48” (bioRxiv, 2025)

B1: CHIP R225*, recombinant (natural protein, human, UniProt Q9UNE7-1 1-303, looked up)
chain: MKGKEEKEGGARLGAGGGSPEKSPSAQELKEQGNRLFVGRKYPEAAACYGRAITRNPLVAVYYTNRALCYLKMQQHEQALADCRRALELDGQSVKAHFFLGQCQLEMESYDEAIANLQRAYSLAKEQRLNFGDDIPSALRIAKKKRWNSIEERRIHQESELHSYLSRLIAAERERELEECQRNHEGDEDDSHVRAQQACIEAKHDKYMADMDELFSQVDEKRKK
B2: CHIP P228S, recombinant, C-terminal His tag (natural protein, human, UniProt Q9UNE7-1 1-303, looked up)
chain: MKGKEEKEGGARLGAGGGSPEKSPSAQELKEQGNRLFVGRKYPEAAACYGRAITRNPLVAVYYTNRALCYLKMQQHEQALADCRRALELDGQSVKAHFFLGQCQLEMESYDEAIANLQRAYSLAKEQRLNFGDDIPSALRIAKKKRWNSIEERRIHQESELHSYLSRLIAAERERELEECQRNHEGDEDDSHVRAQQACIEAKHDKYMADMDELFSQVDEKRKKRDISDYLCGKISFELMREPCITPSGITYDRKDIEEHLQRVGHFDPVTRSPLTQEQLIPNLAMKEVIDAFISENGWVEDY
notes: CHIP (STUB1), SCA48-associated U-box mutation P228S

Biological target: the molecule itself
Test: mass photometry; Refeyn OneMP; CHIP at 50 nM final in 20 mM HEPES pH 8.0, 200 mM NaCl; self-association of CHIP (dimer, tetramer, hexamer, octamer, high MW)

| Protein | stoichiometry N | binding result |
| --- | --- | --- |
| B1 | 2 |  |
| B2 |  | binds |
